Results taken from patent publication US20240116985A1, “STAPLED PEPTIDES AND METHODS THEREOF” (priority 2020, published 2024).
Starred links: 1 amine or outer side, 2 acyl side, 3 side chain; linkers in the order of their positions; H or OH if unused. Positions of bridges follow the written chain, without caps; N, C: chain ends. Non-standard residues stand in square brackets, D forms with d. Primed or numbered codes have the meaning given here. PyrS2″ = (S)-3-amino-1-((pent-4-en-1-yloxy)carbonyl)pyrrolidine-3-carboxylic acid (stapling residue), C=CCCCOC(=O)N1CC[C@@](N[*:1])(C(=O)[*:2])C1; B5(24) = 2-amino-2-(pent-4-en-1-yl)hept-6-enoic acid, 2,2-bis(4-pentenyl)glycine (stitching residue), C=CCCCC(CCCC=C)(N[*:1])C(=O)[*:2]; B5(4) = 2,2-bis(4-pentenyl)glycine = 2-amino-2-(pent-4-en-1-yl)hept-6-enoic acid (stitching residue), C=CCCCC(CCCC=C)(N[*:1])C(=O)[*:2]; B5(5) = 2,2-bis(4-pentenyl)glycine, 2-amino-2-(pent-4-en-1-yl)hept-6-enoic acid (stitching residue), C=CCCCC(CCCC=C)(N[*:1])C(=O)[*:2]; B5(8) = 2,2-bis(4-pentenyl)glycine (2-amino-2-(pent-4-en-1-yl)hept-6-enoic acid, stitching residue), C=CCCCC(CCCC=C)(N[*:1])C(=O)[*:2]; TfeGA = (S)-2-amino-3-((carboxymethyl)(2,2,2-trifluoroethyl)amino)propanoic acid, O=C([C@H](CN(CC(=O)[*:3])CC(F)(F)F)N[*:1])[*:2]; (EtSSpy)AspE = (S)-2-amino-4-oxo-4-(2-(pyridin-2-yldisulfaneyl)ethoxy)butanoic acid, O=C(C[C@H](N[*:1])C(=O)[*:2])OCCSSc1ccccn1; PyrS2 = (S)-3-amino-1-((pent-4-en-1-yloxy)carbonyl)pyrrolidine-3-carboxylic acid, C=CCCCOC(=O)N1CC[C@@](N[*:1])(C(=O)[*:2])C1; AspSH = (S)-2-amino-4-mercapto-4-oxobutanoic acid, O=C(C[C@H](N[*:1])C(=O)[*:2])S[*:3]; B5 = 2-amino-2-(pent-4-en-1-yl)hept-6-enoic acid, C=CCCCC(CCCC=C)(N[*:1])C(=O)[*:2]; Phe(2-Cl) = N[C@@H](Cc1ccccc1Cl)C(=O)O; Bta = N[C@@H](Cc1csc2ccccc12)C(=O)O; αAllylPro = C=CC[C@@]1(C(=O)O)CCCN1; tBuAla = CC(C)(C)C[C@H](N)C(=O)O; 3Thi = N[C@@H](Cc1ccsc1)C(=O)O; Cha = N[C@@H](CC1CCCCC1)C(=O)O; S8 = C=CCCCCCC[C@](C)(N)C(=O)O; hLeu = CC(C)CC[C@H](N)C(=O)O; hSer = N[C@@H](CCO)C(=O)O; Abu = CC[C@H](N)C(=O)O

Experiments:
Bcat-Halo [1] = biological target: Bcat-Halo (UniProt P35222); assay: NanoBRET in HEK293 cells (Bcat-Halo / TCF4-Luc), absolute IC50; competitor: TCF4-Luc
[2] = biological target: full-length beta-Catenin (Uniprot ID P35222) (Homo sapiens (Human)) (UniProt P35222); assay: fluorescence polarization competition; full-length beta-catenin; competitor displaced: 5FAM-TCF4 10-53
Target sequence in this assay (P35222 2-781 limits assumed): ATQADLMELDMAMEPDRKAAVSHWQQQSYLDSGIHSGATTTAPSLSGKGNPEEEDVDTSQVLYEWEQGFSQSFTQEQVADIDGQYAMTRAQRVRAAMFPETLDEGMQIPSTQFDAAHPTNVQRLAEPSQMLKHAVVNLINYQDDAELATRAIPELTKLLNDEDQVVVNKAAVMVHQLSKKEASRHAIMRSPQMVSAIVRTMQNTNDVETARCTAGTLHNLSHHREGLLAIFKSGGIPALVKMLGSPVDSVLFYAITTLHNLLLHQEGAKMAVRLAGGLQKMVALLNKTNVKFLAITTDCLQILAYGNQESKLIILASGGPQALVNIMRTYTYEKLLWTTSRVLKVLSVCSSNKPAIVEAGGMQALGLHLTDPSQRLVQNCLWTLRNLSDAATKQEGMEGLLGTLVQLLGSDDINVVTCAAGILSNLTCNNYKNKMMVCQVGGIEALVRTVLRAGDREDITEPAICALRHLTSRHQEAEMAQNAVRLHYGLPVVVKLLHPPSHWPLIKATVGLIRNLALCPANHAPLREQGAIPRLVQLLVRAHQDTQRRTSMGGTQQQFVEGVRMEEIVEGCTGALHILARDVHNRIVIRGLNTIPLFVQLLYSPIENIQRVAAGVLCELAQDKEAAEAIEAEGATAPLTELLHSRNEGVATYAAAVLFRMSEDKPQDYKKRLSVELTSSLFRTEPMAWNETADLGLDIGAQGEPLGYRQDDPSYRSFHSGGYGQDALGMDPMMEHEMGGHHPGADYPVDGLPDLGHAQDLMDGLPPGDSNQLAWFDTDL

[3] = biological target: full-length beta-Catenin (Uniprot ID P35222) (Homo sapiens (Human)) (UniProt P35222); assay: fluorescence polarization competition, 5FAM-TCF4 10-53 probe on full-length beta-catenin
Target sequence in this assay (P35222 2-781 limits assumed): as above

Bcat-Halo [4] = biological target: Bcat-Halo (UniProt P35222); assay: NanoBRET Abs IC50 in HEK293 cells; competitor TCF4-Luc on Bcat-Halo
[5] = biological target: full-length beta-Catenin (Uniprot ID P35222) (Homo sapiens (Human)) (UniProt P35222); assay: fluorescence polarization competition vs 5FAM-TCF4(10-53) on full-length beta-catenin
Target sequence in this assay (P35222 2-781 limits assumed): as above

[6] = biological target: full-length beta-Catenin (Uniprot ID P35222) (Homo sapiens (Human)) (UniProt P35222); assay: fluorescence polarization competition; 10 nM full-length beta-catenin + 10 nM 5FAM-TCF4(10-53) as competitor probe; peptide titrated
Target sequence in this assay (P35222 2-781 limits assumed): as above

[7] = biological target: full-length beta-Catenin (Uniprot ID P35222) (Homo sapiens (Human)) (UniProt P35222); assay: fluorescence polarization competition; full-length beta-catenin + 5FAM-TCF4(10-53) probe; peptide titrated
Target sequence in this assay (P35222 2-781 limits assumed): as above

[8] = biological target: full-length beta-Catenin (Uniprot ID P35222) (Homo sapiens (Human)) (UniProt P35222); assay: competition fluorescence polarization; full-length beta-catenin, 5FAM-TCF4(10-53) probe as competitor
Target sequence in this assay (P35222 whole entry, one chain of several): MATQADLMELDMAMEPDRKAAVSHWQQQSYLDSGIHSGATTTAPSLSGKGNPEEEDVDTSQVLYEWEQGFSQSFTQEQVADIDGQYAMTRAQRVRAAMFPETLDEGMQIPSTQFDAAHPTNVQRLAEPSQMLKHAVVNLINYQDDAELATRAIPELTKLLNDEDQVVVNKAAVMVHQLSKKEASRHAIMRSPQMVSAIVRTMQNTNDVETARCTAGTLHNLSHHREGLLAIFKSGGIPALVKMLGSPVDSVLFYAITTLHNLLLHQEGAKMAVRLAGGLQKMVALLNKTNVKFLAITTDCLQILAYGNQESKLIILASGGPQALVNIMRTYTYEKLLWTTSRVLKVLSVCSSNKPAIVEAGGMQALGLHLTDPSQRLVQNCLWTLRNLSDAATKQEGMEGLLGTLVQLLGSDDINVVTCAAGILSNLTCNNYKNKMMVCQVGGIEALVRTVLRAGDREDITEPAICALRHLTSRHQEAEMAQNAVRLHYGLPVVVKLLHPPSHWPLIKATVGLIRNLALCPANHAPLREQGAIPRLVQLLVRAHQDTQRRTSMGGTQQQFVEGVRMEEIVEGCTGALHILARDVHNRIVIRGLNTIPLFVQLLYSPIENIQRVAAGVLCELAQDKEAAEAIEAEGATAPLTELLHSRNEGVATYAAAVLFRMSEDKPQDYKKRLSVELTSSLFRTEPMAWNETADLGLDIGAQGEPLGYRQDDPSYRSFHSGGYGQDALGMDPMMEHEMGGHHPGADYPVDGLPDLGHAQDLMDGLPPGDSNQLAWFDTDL

[9] = biological target: full-length beta-Catenin (Uniprot ID P35222) (Homo sapiens (Human)) (UniProt P35222); assay: fluorescence polarization competition; full-length beta-catenin, competitor 5FAM-TCF4(10-53) probe
Target sequence in this assay (P35222 whole entry, one chain of several): as above

[10] = biological target: full-length beta-Catenin (Uniprot ID P35222) (Homo sapiens (Human)) (UniProt P35222); assay: fluorescence polarization competition; displacement of 5FAM-TCF4(10-53) from full-length beta-catenin
Target sequence in this assay (P35222 whole entry, one chain of several): as above

Chain of Bcat-Halo (P35222 whole entry): as the sequence (P35222 whole entry, one chain of several) above

Ac-[αAllylPro]D[tBuAla][B5(4)]DEAAFN[S8][3Thi][Bta]Q-NH2 (staple 1-4, 4-11; not fully specified) [I-683] showed an IC50 (Bcat-Halo [1]) of 6700 nM and an IC50 [2] of 19 nM.

With Ac-[αAllylPro]D[Cha][B5(4)]DDAAFS[PyrS2″][Phe(2-Cl)][Bta][hSer]-NH2 (staple 1-4, 4-11) [I-1137] the EC50 [3] was 8 nM, the IC50 (Bcat-Halo [4]) was 12000 nM and the IC50 [5] was 8 nM.

Ac-[αAllylPro]D[tBuAla][B5(4)]NTAAFN[PyrS2″][3Thi][Bta]N-NH2 (staple 1-4, 4-11) [I-1746] was tested, and the IC50 [6] was 235 nM.

Binder Ac-[αAllylPro]DI[B5(8)]D[TfeGA]AAFN[S8][3Thi][Bta]Q-NH2 (staple 1-4, 4-11) [I-701] has an IC50 (Bcat-Halo [1]) of 18100 nM, an IC50 [2] of 34 nM and an EC50 [7] of 34 nM.

Ac-[αAllylPro][(EtSSpy)AspE][tBuAla][B5]DDAAFN[PyrS2][Phe(2-Cl)][Bta]Q-NH2 (staple 1-4, 4-11; also: earlier-eluting isomer) [I-1723] was tested, and the IC50 [6] was 62 nM.

In the case of Ac-[αAllylPro]D[tBuAla][B5(4)]DEAAFN[PyrS2″]F[Bta]H-NH2 (staple 1-4, 4-11; not fully specified; printed as Ac-PL3-Asp-Npg-B5-Asp-Glu-Ala-Ala-Phe-Asn-PyrS2-Phe-BztA-His-NH2) [I-692], the IC50 (Bcat-Halo [1]) is reported as 25600 nM, the IC50 [2] is reported as 9 nM and the EC50 [7] is reported as 9 nM.

Work on Ac-[αAllylPro]D[tBuAla][B5(4)]DEAAFN[PyrS2″][3Thi][Bta]Q-NH2 (staple 1-4, 4-11; not fully specified; printed as Ac-PL3-Asp-Npg-B5-Asp-Glu-Ala-Ala-Phe-Asn-PyrS2-3Thi-BztA-Gln-NH2) [I-690] yielded an IC50 (Bcat-Halo [1]) of 17800 nM, an IC50 [2] of 7 nM and an EC50 [7] of 7 nM.

Binder Ac-[αAllylPro]D[tBuAla][B5(4)]DEAAFN[PyrS2″]F[Bta]H-NH2 (staple 1-4, 4-11; not fully specified; printed as Ac-PL3-Asp-Npg-B5-Asp-Glu-Ala-Ala-Phe-Asn-PyrS2-Phe-BztA-His-NH2) [I-693] has an IC50 (Bcat-Halo [1]) of 28500 nM, an IC50 [2] of 12 nM and an EC50 [7] of 12 nM.

Ac-[αAllylPro]D[hLeu][B5(5)]DDAAFN[S8]F[Bta]H-NH2 (staple 1-4, 4-11) [I-584] showed an IC50 [8] of 33 nM and an EC50 [9] of 33 nM.

Ac-[αAllylPro]D[Cha][B5(4)]DDAAFL[PyrS2″][Phe(2-Cl)][Bta][dT]-NH2 (staple 1-4, 4-11) [I-1140] was tested, and the EC50 [3] was 33 nM, the IC50 (Bcat-Halo [4]) was 32500 nM and the IC50 [5] was 33 nM.

In the case of Ac-[αAllylPro]D[Cha][B5(4)]DDAAFS[PyrS2″][Phe(2-Cl)][Bta]L-NH2 (staple 1-4, 4-11) [I-1138], the EC50 [3] is reported as 18 nM, the IC50 (Bcat-Halo [4]) is reported as 19800 nM and the IC50 [5] is reported as 18 nM.

Ac-[αAllylPro]D[Cha][B5(4)]DDALFS[PyrS2″][Phe(2-Cl)][Bta]Q-NH2 (staple 1-4, 4-11) [I-1148] gave an EC50 [3] of 50 nM, an IC50 (Bcat-Halo [4]) of 21500 nM and an IC50 [5] of 50 nM.

Ac-[αAllylPro]D[Cha][B5(4)]DDAAFL[PyrS2″][Phe(2-Cl)][Bta]T-NH2 (staple 1-4, 4-11) [I-1139] showed an EC50 [3] of 22 nM, an IC50 (Bcat-Halo [4]) of 18000 nM and an IC50 [5] of 22 nM.

For Ac-[αAllylPro]D[Abu][B5(4)]DEAAFQ[S8]F[Bta]Q-NH2 (staple 1-4, 4-11) [I-568], the IC50 [8] was 73 nM and the EC50 [10] was 73 nM.

With Ac-[αAllylPro]D[hLeu][B5(5)]DDAAFN[S8]F[Bta]H-NH2 (staple 1-4, 4-11; also: staple isomer, earlier eluting HPLC peak) [I-583] the IC50 [8] was 69 nM and the EC50 [9] was 69 nM.

Ac-[αAllylPro]D[tBuAla][B5(4)]NTAAFN[PyrS2″][3Thi][Bta]R-NH2 (staple 1-4, 4-11) [I-1743] showed an IC50 [6] of 469 nM.

Ac-[αAllylPro]D[tBuAla][B5(4)]NTAAFN[PyrS2″][3Thi][Bta]-NH2 (staple 1-4, 4-11) [I-1742] showed an IC50 [6] of 867 nM.

Work on Ac-[αAllylPro]D[tBuAla][B5(4)]NTAAFW[PyrS2″][3Thi][Bta]Q-NH2 (staple 1-4, 4-11) [I-1741] yielded an IC50 [6] of 4390 nM.

Ac-[αAllylPro][AspSH][tBuAla][B5]DDAAFN[PyrS2][Phe(2-Cl)][Bta]Q-NH2 (staple 1-4, 4-11; not fully specified) [I-1722] was tested, and the IC50 [6] was 135 nM.

Ac-[αAllylPro]D[tBuAla][B5(4)]DEAAFN[PyrS2″][3Thi][Bta]Q-NH2 (staple 1-4, 4-11; not fully specified; printed as Ac-PL3-Asp-Npg-B5-Asp-Glu-Ala-Ala-Phe-Asn-PyrS2-3Thi-BztA-Gln-NH2) [I-691] showed an IC50 (Bcat-Halo [1]) of 17000 nM, an IC50 [2] of 9 nM and an EC50 [7] of 9 nM.

Binder Ac-[αAllylPro]D[Cha][B5(4)]DDLAFS[PyrS2″][Phe(2-Cl)][Bta]Q-NH2 (staple 1-4, 4-11) [I-1147] has an EC50 [3] of 10 nM, an IC50 (Bcat-Halo [4]) of 21100 nM and an IC50 [5] of 10 nM.

With Ac-[αAllylPro]D[tBuAla][B5(4)]NTAAFN[PyrS2″][3Thi][Bta]T-NH2 (staple 1-4, 4-11) [I-1745] the IC50 [6] was 402 nM.

Work on Ac-[αAllylPro]D[Cha][B5(4)]DDLAFT[PyrS2″][Phe(2-Cl)][Bta]S-NH2 (staple 1-4, 4-11) [I-1150] yielded an EC50 [3] of 12 nM, an IC50 (Bcat-Halo [4]) of 21400 nM and an IC50 [5] of 12 nM.

Binder Ac-[αAllylPro]D[Abu][B5(4)]DEAAFQ[S8]F[Bta]Q-NH2 (staple 1-4, 4-11) [I-569] has an IC50 [8] of 42 nM and an EC50 [10] of 42 nM.

Work on Ac-[αAllylPro]D[Abu][B5(4)]DEAAFQ[S8]F[Bta]H-NH2 (staple 1-4, 4-11) [I-570] yielded an IC50 [8] of 56 nM and an EC50 [10] of 56 nM.

Work on Ac-[αAllylPro]D[Cha][B5(4)]DDALFT[PyrS2″][Phe(2-Cl)][Bta]S-NH2 (staple 1-4, 4-11) [I-1151] yielded an EC50 [3] of 30 nM, an IC50 (Bcat-Halo [4]) of 25300 nM and an IC50 [5] of 30 nM.

Binder Ac-[αAllylPro]D[tBuAla][B5(5)]D[TfeGA]AAFL[PyrS2″][3Thi][Bta]L-NH2 (staple 1-4, 4-11) [I-1747] has an IC50 [6] of 187 nM.

Work on Ac-[αAllylPro]D[tBuAla][B5(4)]DEAAFN[PyrS2″]F[Bta]Q-NH2 (staple 1-4, 4-11; not fully specified; printed as Ac-PL3-Asp-Npg-B5-Asp-Glu-Ala-Ala-Phe-Asn-PyrS2-Phe-BztA-Gln-NH2) [I-684] yielded an IC50 (Bcat-Halo [1]) of 14300 nM, an IC50 [2] of 15 nM and an EC50 [7] of 15 nM.

Binder Ac-[αAllylPro]D[tBuAla][B5(4)]NTAAFN[PyrS2″][3Thi][Bta]F-NH2 (staple 1-4, 4-11) [I-1744] has an IC50 [6] of 363 nM.

With Ac-[αAllylPro][(EtSSpy)AspE][tBuAla][B5]DDAAFN[PyrS2][Phe(2-Cl)][Bta]Q-NH2 (staple 1-4, 4-11; not fully specified) [I-1724] the IC50 [6] was 551 nM.

Binder Ac-[αAllylPro]D[tBuAla][B5(4)]DEAAFN[PyrS2″]F[Bta]Q-NH2 (staple 1-4, 4-11; not fully specified; printed as Ac-PL3-Asp-Npg-B5-Asp-Glu-Ala-Ala-Phe-Asn-PyrS2-Phe-BztA-Gln-NH2) [I-685] has an IC50 (Bcat-Halo [1]) of 19400 nM, an IC50 [2] of 25 nM and an EC50 [7] of 25 nM.

Ac-[αAllylPro]D[tBuAla][B5(8)]DEAAFN[PyrS2″][3Thi][Bta]H-NH2 (staple 1-4, 4-11) [I-697] gave an IC50 (Bcat-Halo [1]) of 14700 nM, an IC50 [2] of 5 nM and an EC50 [7] of 5 nM.

Ac-[αAllylPro]D[Abu][B5]DDAAFN[S8]F[Bta]H-NH2 (staple 1-4, 4-11) [I-575] was tested, and the IC50 [8] was 21 nM and the EC50 [9] was 21 nM.
